Source: the DeepSol protein solubility set

Test: soluble on expression in E. coli; label from the status in PepcDB or PDB records

Row | Sequence | soluble on expression in E. coli
1 | NTLGMVMHADGGYLGSKPYCASGQYIKRMSDYCRGCAYKVTESTTDDACPFNALYWHFLMRHSDQLRRNQRMGMIYKNLDRMAEAKQQALWERGEHLLARLDAGEAL | not soluble
2 | MSHSYSVPKKFPTTVVGSYPKIGPASEAIKKRRAGEISEEEFHRIARESIRMVVEDYIWAGVDIISDGEQTREDMVVYFAERLEGYREGDWVRVFDNVYFRKPIVAGRVRWVRPMIIEDWEYARSISAGRPVKFIITGPYTMLEWSFDLHYGDRRELIFDLARAIRREIDEALARGAEYIQVDEPALSTRPFKEEAELLKEALDIIFKGVGAKRIVHICYGELERILPYILDYPVDQFDLEMKNSNFRLLPYLKEYGYDKEIGYGVIDVHSFQVESVGEVKEAIDRLMKMDIVGPEKVYVDPDCGLKRLPRDVARAKLKNMVEAARLAREEWMAGDPLEHHHHHH | not soluble
3 | MSLERPLCISYIRFSKATQAEGSSLERQLQLSRTYAEEHGLVLDDKHSYQDLGKSAFTSEHVKEGEFGVFLEFVKQGRVPKGSVLLVESLDRLSRESVLTAFKQFQEILDAGIKIVTLSDKMEYTKEGFEANIGNIFISLGIMARANEESLRKSERICAAWRLKRKNLHNIKLTANCPGWLELTPDKKDFILKEDRVEIVKQIFELSLSGLGVKAISTILNKQKIEPFRSKIGWYQTTVRKILSNSAVIGEFQPHVFGSKHSKPVPDGELIKDYFPPIIDTDTFYAVQAKLKNGAHREGHHHHHH | soluble
4 | MSLEALLSEDVKIIASALKAAIDKDRKSTSKREAETGIRYYNHENDIMNNRIFYVDDEGVLREDKYASNVRIPHGFFPEIVDQKTQYLLSNPVEYETENEELKEYLAEYYNSEFQVVLQELVEGSSQKGFEYVYARTNAEDRLCFQVADSLNVFGVYNEYNELQRICRHYITEIEKDGETVDIHHAEVWTDQNVYFFVAEDNKDYELDEAEPINPRPHVLAVDSDNESLLQRSYGQIPFYRLSNNKQETTDLKSIKALIDDYDLMNCFLSNNLQDFAEAIYVVSGFQGDDLSKLRQNVKSKKVVGTGSDGGLDVKTVTIPTEGRKTKMEIDKENIYKFGMAFDSTQVGDGNITNIVIKARYTLLNMKANKTEARLRALLEWMNKLVIDDINRRYTKAFDPTEVSFTFTREVMVNETDIVNNEKTEAETRKIILESILQVAPRLDDDNVLRLICEQFDLDWEDVKEALEEAEYTQGLTDNTDEEETAEGHHHHHH | soluble
5 | MRIALFTDTYIPQVNGVARTMKRLVDHLEKRQVEYALYMPETIEKLDRFESNIHTFASLPFFLYPECRIALPNVFKLRQQLTSFQPDLLHIATPFNVGLSGLQHGKKYGIPMVGSYHTHFDHYLHYYKLQFMSAWLWKYVKWFHQPFERTFVPSVETMRHLQKHGFQRLALWTRGVDCERFHPKQRHRSYAINLLPKDKAVLLYVGRLAPEKDLATLVAIMSLLPRELNEKIQWMIVGDGPSLPEMKKQCPSNVTFTGYLKGEELAAAYASADLFVFPSATETFGNVVLEAFASGTPAIVADRGGVTEIVEHGKSGMICKAGDAHTFIQAIEHLLMNRSKRAEMGYEARQYALTQSWERIFDDLLEQYEQVIFHHKKRHLALEHHHHHH | not soluble
6 | MGSDKIHHHHHHMFSDFKKDFCLANPGYLLSHSVGRPLKSTEQVFKEAFFAPWQDSGREPWGQWLSVIDDFTFALSKLFNGHQKDFCPQVNLSSALAKILMSLARLNREHAVVLMSEIDFPSMGFAIKKALPASCEVRFIPKTLDITDANVWDAHMGSDIDLVFVSHAYSNTGQQAPLANILAMARQYGCLSVVDVAQSAGIIPLNLAQLQPDFLIGSSVKWLCSGPGAAYLWVNPSIIDSCQPKDVGWFSHENPFEFNIHDFRYHNSALRFWGGTPSIAPYAIAAHSIHYFADIGVEQLRKGNQLLIDIVAEALDQEFVSPREIEKRSGTLVLQFGEQQGQIMAALAKANISVDARSMGIRISPHIYNDKADIQLLLSVIKAHR | not soluble
7 | MGSDKIHHHHHHMKVFITGGTGFVGSAVVQELVANGFEVVGLARSETSAQKLISWGAQPVRGSLTSLSTLATAAAQADAIIHLGFNNDFRHFFQAGAMDRRAIETMGRAISGTNKPLVVTYGTTGIRKHVETEHEVADTGLLKWLTPRKSEIVARQLMAQNINAFVVRLSPAVHGAGDMGFTRTVIERAKKSHRAEYFGLGTHAWSAVHRLDAAHLFYLVTMYGLEHPTTNERVFNAVAEESITIAAIARTISRKLNVPLKAKYNPLSFGDTAMLYLINCPTSSQLTRQILGWVPVQPDLLTDISSSRY | not soluble
8 | GAMDPMKAKRVQAKIEMEFPSEDVAKVVYEAVLYEHLSVPYRRSEIDFKLEGKKIILDIKATDSSALRGTVNSYLRWIKAAIDVIEV | soluble
9 | MAHHHHHHMKCELASLIKENAQLGREMRGTPQLRVPQETDVAWRLRRDVLLHSEYPHVAACPEKDVERKDGRAVVVFQESKLQGEPPERTAAQKRSRSDHTAVVSVDPSVLKARASSLGERIVGAAGPSFEPYTAPPSWKMAKVLVGHRGWVWGAAVDPSNSWFATGGGDGVVKVWDLTTGALKLNLTGHKEGVRALSLSTLSPYMFTGSDDHSVKCWDLERNEIIRDFHGHKGSVHCVSTHPSLDIVLSGGRDKTVRVWDVRTRSCVHLLLGHSDSVMSLAVQQEDPQAISGGSDGMVYLWDIASGRAFTRLTRHKKPVRGLALSRQRVLVSCGADNIRVWSLPTGEFLFNASTLDNGKETKKEKEQEPQRWSCCSVSPRNVLAVGSQEGRLLFFDWSHPQQGPYQATKTRSVPGTLPGEGGINGLAFDASGSRLITAESDKSAKVWRTKE | not soluble
10 | MGSDKIHHHHHHMRKMRKASRLFEIIQILRLARQPVTAAMIAERLEVTIRSIYRDIAALQAMRVPIEGGRGIGYILRPGFDLPPLMFSIEEMEAIVLSLALLERTGDDELKQAAKRVSSKIAGAVPPPLRQTFDANALHAWGFAAPSAGTIDLALVRRAIRDEEKLDLSYRDEAGRTTQRIIRPIALIYYAEAVNTVAWCELRQAIRNFRSDRIEGCQPTGLHFKGEGDRLRQIWVEGWETPAVGG | not soluble
11 | MADSQTSSNRAGEFSIPPNTDFRAIFFANAAEQQHIKLFIGDSQEPAAYHKLTTRDGPREATLNSGNGKIRFEVSVNGKPSATDARLAPINGKKSDGSPFTVNFGIVVSEDGHDSDYNDGIVVLQWPIG | soluble
12 | MGSDKIHHHHHHMMVLTLKDFEQTYFYKTELIQLCKVYGLPTYGTKAELNKYLTLYLSGTPACDIKVNRKHTTSRNKTKITLETKILGEGFSFNQEARKLFAEYFGKEKFSFKKEMAVIKRQAEHNGETKMTVRDLLERYQEMVGQGNVLRETAEEATYQWNNFVRDFCKSSESQNYHQKLKVAAILWEKVKNSKNDKKFEASLVQKYEKNISNYMNK | not soluble
13 | MESLLTLPLAGEARVRILQITDTHLFAEKHETLLGVNTWESYQAVLEAIRAQQYEYDLIVATGDLAQDQSAAAYQHFAEGIASFRAPCVWLPGNHDFQPAMYSALQEAGISPAKRVLIGEQWQILLLDSQVFGVPHGELSEFQLEWLERKLADAPERQTLLLLHHHPLPAGCSWLDQHSLRNAGELDSVLANFPRVKYLLCGHIHQELDLDWNGRRLLASPSTCVQFKPHCANFTLDTIAPGWRTLELRANGVLETEVHRLQDTRFRPDTASEGY | not soluble
14 | MEAVQSSGRRMVHAIVWRYFEPRLRGSSVSNPGSNLVRFSEFCRGSMGFHICRLCDQASQWLSLDRSTSQWLSLDRSTVTTAFVWTDAFTTGTAGFNWDNKQPDNKDLNQPCAIVLAAHAPIHFQSYQFQPAMMDDAECAADSVASMGRTISGYVCGKPARQ | not soluble
15 | MGSDKIHHHHHHAGCETEGEDIDMRFETCTVSFVQQELRSSYEVYFNGEKSINRSTSVKKNSTLKLEVYKIGEKQPELSQEITLDNSKDIELLKLVGRDIAISSSLEEYTTFTPIISYFNPNTDLYTVTFNNGELSNKVKNYIAEADLSGTLKIVRNVDGQVLYEQDMTIMPEGQFSLMQLSDTDFLDISDGEEADPESRQYTKIRFFYTADAFPGHDKLKLVVYLMDLDAMQFTAPIATIDLEAGKISEYIQIDNDAFGQGVVNGVYDLIDESGNMIVNNLEHFNTSIPIGTSDNKFMTFRFMDPSHQGGDNVQCNFILSTPWK | not soluble
16 | MGSDKIHHHHHHMAHADIFNAIYTNKVWGNGSGEGSAEELTRDYRKFLHNFLRANHIRSVVDLGCGDWQFSRHMDWSGIEYCGIDVSSVVLETTRNFSAPNIRFQEMNGIEGELPSADLLICKDVVQHWSNTDILQLFPKLPRFRLALITNAFHPAITENQDIVTGDFRPLNLLAKPFDIKGSYIYCFMAGEPKGVFLWSRGD | not soluble
17 | ANEMTYEQLARELLLVGPAPTNEDLKLRYLDVLIDNGLNPPGPPKRILIVGAGIAGLVAGDLLTRAGHDVTILEANANRVGGRIKTFHAKKGEPSPFADPAQYAEAGAMRLPSFHPLTLALIDKLGLKRRLFFNVDIDPQTGNQDAPVPPVFYKSFKDGKTWTNGAPSPEFKEPDKRNHTWIRTNREQVRRAQYATDPSSINEGFHLTGCETRLTVSDMVNQALEPVRDYYSVKQDDGTRVNKPFKEWLAGWADVVRDFDGYSMGRFLREYAEFSDEAVEAIGTIENMTSRLHLAFFHSFLGRSDIDPRATYWEIEGGSRMLPETLAKDLRDQIVMGQRMVRLEYYDPGRDGHHGELTGPGGPAVAIQTVPEGEPY | soluble
18 | MTYTVGMYLAERLVQIGLKHHFAVAGDYNLVLLDQLLLNKDMKQIYCCNELNCGFSAEGYARSNGAAAAVVTFSVGAISAMNALGGAYAENLPVILISGAPNSNDQGTGHILHHTIGKTDYSYQLEMARQVTCAAESITDAHSAPAKIDHVIRTALRERKPAYLDIACNIASEPCVRPGPVSSLLSEPEIDHTSLKAAVDATVALLEKSASPVMLLGSKLRAANALAATETLADKLQCAVTIMAAAKGFFPEDHAGFRGLYWGEVSNPGVQELVETSDALLCIAPVFNDYSTVGWSAWPKGPNVILAEPDRVTVDGRAYDGFTLRAFLQALAEKAPARPASAQKSSVPTCSLTATSDEAGLTNDEIVRHINALLTSNTTLVAETGDSWFNAMRMTLPRGARVELEMQWGHIGWSVPSAFGNAMGSQDRQHVVMVGDGSFQLTAQEVAQMVRYELPVIIFLINNRGYVIEIAIHDGPYNYIKNWDYAGLMEVFNAGEGHGLGLKATTPKELTEAIARAKANTRGPTLIECQIDRTDCTDMLVQWGRKVASTNARKTTLALEHHHHHH | soluble
19 | MAERELYIGVMSGTSLDGVDTALVALQDDNIELLAHHDYPIPADLKQRLLNVCIGQPTTLIAMGELEHDLGHLFSDAVLALLQHSGYRAEHIRAIGCHGQTVFHQPTGTKPFTMQIGDANIIATRTGITTVADFRRKDVALGGQGAPLVPAFHRTIFHAEQSTVVVLNIGGIANISVLKPNGEVVGYDTGPGNMLMDSWCQKERNQPYDKDALWAKQGSVNAALLSHLKQDHYFALPAPKSTGRELFNLPWLETQLATFSVDATDVQRTLCEFTAQTIVEQVAPFAEGPQPQLLVCGGGAQNPLLMERLQALLPSWQVAPTTQMGVDGDNMEAMAFAWLAQRRIHGLPSNLPAVTGASRLASLGVIYYPD | not soluble
20 | MHTLEQLRAGALTGIQALKLSENLTEVPAEVFQLADTLEILDLSGNRLHSLPQEMACLTRLRILFLSDNDFTIFPEVLKELKQLDMLGIKANNIQVIAEDAIPVSLRWLILTDNCIEALPVSIGRCTKLQKVMLAGNQLSGLPDELAACRNIELLRISANNMHTFPEVVKQLPRLAWLAYSSNPFQVNRSSFNALPVIAWENVALMEQLGAGASGIIYKARLNTGKSPEDVAVKVFKGAVTSDGLPEDEMTACMQAGRNSHLVSVLGVIGGHPEGMHGLVMELIPAEYKNLGRPPSFVTCTRDTFAAGTRFTAQQMLLILKGVAEAAKQLHDNGIMHGDLYAHNTLINEKYHSLFGDFGAATLYDKNNRDEAFFLERLDVRAFGCLADDLLQYSVCTKEDEWCLETLKRLSAGCMNEEPDKRPAFNTIVYELQLLQNTHLEHHHHHH | soluble
